Measured values reported in patent publication US20060281899A1, “Mutants of biotin binding protein” (priority 2002, published 2006).
Read-outs that look alike come from different tables or passages of the source.

How the values were obtained:
[1] = cited from earlier work
[2] = 2-iminobiotin surface; from Nordlund 2003; read-out: Kd detected from the equilibrium response data; cited from earlier work
[3] = IAsys optical biosensor, affinity of avidin and avidin mutants towards 2-iminobiotin; assay type: binding
Experimental: (§1) Reversibility of biotin binding was measured for avidin and the mutants with an IAsys optical biosensor (Laitinen, O. H. et al., FEBS Lett 461 (1999), 52-8). Protein samples were allowed to bind to a biotin-aminosilane cuvette in PBS containing 1 M NaCl. After the equilibrium was reached, biotin-containing buffer was added and the dissociation of the proteins was monitored. The affinities of the proteins towards 2-iminobiotin were determined with an IAsys optical biosensor (Marttila, A. T. et al. FEBS Lett 441 (1998), 313-7). Biotin-binding activity of the mutants Avd-ci and Avd-ccci after heat treatment was studied with a microtiter plate assay. Protein samples, 5 μg/ml concentration in PBS, were heated for various time periods at 99.9° C. and then chilled on ice. The samples were transferred to a Nunc Maxisorp-plate and incubated at 37° C. for 2 h. The wells were washed three times with PBS-Tween (0.05% v/v). After that the wells were blocked with PBS containing 1% BSA at 37° C. for 30 minutes and washed again with PBS-Tween. Next, biotinylated alkaline phosphatase (Sigma) in PBS, 1% BSA was added and incubated at 37° C. for one hour. Once again, the wells were washed with PBS-Tween and the PNPP substrate in DEA buffer (1 mg/ml) was applied to the wells. The absorbances at 405 nm were measured after incubation for 45 minutes.

[4] = Differential scanning calorimetry of the avidin mutants; assay type: physicochemical; details: for Tm: DSC, 100 mM Na-phosphate buffer pH 7.4
Experimental: In order to study the thermal stability of the purified avidin mutants, they were subjected to analysis by differential scanning calorimetry. A Nano II differential scanning calorimeter (Calorimetric Science Corporation, Provo, Utah) was used. […] The reference cell was filled with the same buffer that the sample proteins were dissolved in (100 mM Na-phosphate buffer pH 7.4). The thermograms were recorded as a function of temperature, between 25 and 130° C. at a temperature scan rate of 55.6° C./h. The baselines were subtracted and the transition midpoints (Tm) of the samples were calculated using proprietary software provided by the instrument manufacturer.

[5] = test system: biotinylated alkaline phosphatase; experiment: Microtiter plate assay, biotin-binding activity after heat treatment at 99.9° C.; assay type: physicochemical; details: 99.9° C. for various time periods
Experimental: as §1, with “After that the wells were blocked with PBS containing 1% BSA at 37° C. for 30 minutes and washed again with PBS-Tween. Next, biotinylated alkaline phosphatase (Sigma) in PBS, 1% BSA was added and incubated at 37° C. for one hour. Once again, the wells were washed with PBS-Tween and the PNPP substrate in DEA buffer (1 mg/ml) was applied to the wells.” left out
Biotin-binding activity of the proteins after heat treatment was studied with a microtiter plate assay (Nordlund, H. R., Laitinen, O. H., Uotila, S. T., Nyholm, T., Hytönen, V. P., Slotte, J. P. & Kulomaa, M. S. (2003) J. Biol. Chem. 278, 2479-2483). […] The absorbencies at 405 nm were measured after incubation for 45 minutes.

[6] = previously published (Nordlund 2003; Gonzalez 1999)

B1: Avd-ccci: Avidin mutant D86C, I106C, I117C with six intermonomeric disulphide bridges (protein, UniProt P02701 25-152, looked up, variant D86C I106C I117C)
Avidin: ARKCSLTGKWTNDLGSNMTIGAVNSRGEFTGTYITAVTATSNEIKESPLHGTQNTINKRTQPTFGFTVNWKFSESTTVFTGQCFICRNGKEVLKTMWLLRSSVNDCGDDWKATRVGCNIFTRLRTQKE
- ΔTm ([1]; change in Tm upon biotin addition, previously published values): 27.3 °C
- DSC Tm (+biotin) [1, 6]: 122.0 ± 0.1 °C
- DSC Tm(−biotin) [1, 6]: 94.7 ± 0.5 °C
- Kd [2]: 290 nM
- Kd [3]: 290 nM
- ΔTm ([4]; + biotin, difference in Tm compared to wt avidin + biotin): 3.8 °C
- Tm ([4]; + biotin (biotin:avidin molar ratio 3:1)): 122.0 ± 0.1 °C
- Tm ([4]; without biotin): 94.7 ± 0.5 °C
- ΔTm ([4]; without biotin, difference in Tm compared to wt avidin): 9.2 °C
- biotin-binding activity after heat treatment [5]: remained active, in the sense of binding biotin, longer than the wild-type avidin
